# Assay results published in US20130156786A1.
# Assays:
# [1] = biological target: macaca fascicularis α2β1 integrin on platelets (macaca fascicularis); assay: FACS of macaca blood platelets, secondary antibody only, without primary antibody (negative control)
# [2] = biological target: human α2β1 integrin on human platelets (human) (UniProt P17301); assay: FACS of human blood platelets, secondary antibody only, without primary antibody (negative control)
# human α2β1 integrin on human platelets (human), sequence (P17301 30-1181 limits assumed, chain 1 of 2): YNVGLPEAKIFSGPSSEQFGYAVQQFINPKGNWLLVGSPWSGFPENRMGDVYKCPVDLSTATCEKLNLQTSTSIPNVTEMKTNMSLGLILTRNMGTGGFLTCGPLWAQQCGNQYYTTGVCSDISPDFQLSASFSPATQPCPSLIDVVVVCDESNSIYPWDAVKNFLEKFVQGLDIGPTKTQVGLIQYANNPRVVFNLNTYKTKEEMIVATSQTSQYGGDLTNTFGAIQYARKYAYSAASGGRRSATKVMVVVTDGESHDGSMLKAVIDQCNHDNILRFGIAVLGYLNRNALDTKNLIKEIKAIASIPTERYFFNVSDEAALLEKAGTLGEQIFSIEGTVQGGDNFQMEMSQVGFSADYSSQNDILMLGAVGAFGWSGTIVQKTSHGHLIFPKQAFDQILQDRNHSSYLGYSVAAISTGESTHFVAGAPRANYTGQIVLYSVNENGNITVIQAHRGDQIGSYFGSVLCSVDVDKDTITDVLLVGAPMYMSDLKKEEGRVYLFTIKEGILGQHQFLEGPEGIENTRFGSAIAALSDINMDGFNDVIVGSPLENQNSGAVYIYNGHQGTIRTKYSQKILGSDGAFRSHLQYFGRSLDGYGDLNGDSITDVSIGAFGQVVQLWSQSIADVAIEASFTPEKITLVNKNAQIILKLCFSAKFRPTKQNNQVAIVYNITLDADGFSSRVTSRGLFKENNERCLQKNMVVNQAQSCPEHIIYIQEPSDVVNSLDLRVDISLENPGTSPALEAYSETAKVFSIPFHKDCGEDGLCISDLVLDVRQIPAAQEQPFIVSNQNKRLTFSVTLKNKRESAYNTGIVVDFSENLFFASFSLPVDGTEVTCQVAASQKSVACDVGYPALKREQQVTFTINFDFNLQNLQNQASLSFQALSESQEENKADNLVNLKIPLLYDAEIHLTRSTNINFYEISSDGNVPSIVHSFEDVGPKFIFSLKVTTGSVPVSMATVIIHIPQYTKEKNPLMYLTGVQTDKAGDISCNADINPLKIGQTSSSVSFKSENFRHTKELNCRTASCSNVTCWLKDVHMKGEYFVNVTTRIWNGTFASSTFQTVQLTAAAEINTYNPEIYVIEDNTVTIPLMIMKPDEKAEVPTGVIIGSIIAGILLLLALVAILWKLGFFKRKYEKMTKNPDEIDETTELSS
# human α2β1 integrin on human platelets (human), sequence (chain, as listed by the source limits assumed, chain 2 of 2): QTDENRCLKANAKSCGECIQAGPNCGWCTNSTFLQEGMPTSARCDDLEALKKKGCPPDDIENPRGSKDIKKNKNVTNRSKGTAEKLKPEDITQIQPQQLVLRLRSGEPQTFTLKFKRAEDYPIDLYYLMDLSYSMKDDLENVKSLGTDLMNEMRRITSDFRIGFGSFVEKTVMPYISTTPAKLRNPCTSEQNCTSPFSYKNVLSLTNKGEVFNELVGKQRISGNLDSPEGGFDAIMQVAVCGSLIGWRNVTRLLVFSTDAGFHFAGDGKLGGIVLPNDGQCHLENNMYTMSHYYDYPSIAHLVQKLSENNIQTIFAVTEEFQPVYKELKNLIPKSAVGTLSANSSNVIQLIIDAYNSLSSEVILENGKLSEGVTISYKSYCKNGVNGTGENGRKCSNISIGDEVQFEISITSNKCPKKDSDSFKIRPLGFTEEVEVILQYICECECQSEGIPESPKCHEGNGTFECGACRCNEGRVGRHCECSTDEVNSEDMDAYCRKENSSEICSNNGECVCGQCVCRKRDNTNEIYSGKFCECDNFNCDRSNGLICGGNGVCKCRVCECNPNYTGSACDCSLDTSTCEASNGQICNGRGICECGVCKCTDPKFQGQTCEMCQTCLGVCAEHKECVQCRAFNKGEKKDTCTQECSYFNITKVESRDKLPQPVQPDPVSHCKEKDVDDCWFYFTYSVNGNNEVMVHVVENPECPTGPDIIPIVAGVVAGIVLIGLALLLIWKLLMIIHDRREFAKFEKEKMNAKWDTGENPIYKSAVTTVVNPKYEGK
substance,measurement,setting,value
anti mouse-IgG-PE (antibody),% positives,[1],0.6%
same,% positives,[2],0.5%
